Where two headings read alike, the source gives them in different places.
Legend:
[1] = FP purification and fluorescence characterization in vitro (spectra, extinction coefficient, quantum yield); assay type: physicochemical
Outline: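 His-tagged FPs expressed in E. coli with PCB or BV and Ni-NTA purified; apoproteins loaded in vitro with chromophore in PBS+10% FBS at 37 °C overnight. Extinction coefficient from BV absorbance at 390 nm or BCA protein assay; quantum yield relative to Cy5; photobleaching normalised to 1,000 photons/molecule/s.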

[2] = In vitro photobleaching of bubbles of purified FP or Cy5 in mineral oil; assay type: physicochemical
Procedure: EX and EM spectra were obtained using SPEX Fluorolog fluorometer (Horiba). Absorbance spectra were obtained using UV-VIS Spectrophotometer Cary Eclipse (Varian) or UV-2700 (Shimadzu). Quantum yield was determined relative to Cy5. Incorporation rates of BV on 0.5 μM smURFP was performed by addition of smURFP to PBS alone or with 20% fetal bovine serum (FBS) and mixed by pipetting in a quartz cuvette. Chromophore was added last, mixed by pipetting, and fluorescence was recorded using SPEX Fluorolog fluorometer (Horiba). Photobleaching was characterized on bubbles of purified FP or Cy5 within mineral oil using light from a 150 W xenon arc lamp with 100% light through EX/EM=628(40)/680(30) nm for smURFP, TDsmURFP, and Cy5 or EX/EM=665 (45)/725 (50) nm for IFP 1.4 focused with a 40×, 1.2 numerical aperture C-Apochromat oil-immersion lens on a Zeiss Axiovert 200M inverted microscope. Photobleaching times were normalized to reflect an initial illumination intensity producing 1,000 photons per fluorescent molecule per second as previously described^37.

HEK293A cells = assay: FP stability in HEK293A cells (cycloheximide); assay type: cell-based; conditions: for fold increase in smURFP fluorescence: HEK293A
Procedure: HEK293A cells were transfected with pCDNA3-smURFP-IRES-eGFP and incubated for 48 h. 50 μg/ml cycloheximide+25 μM BV, 5 μM BVMe2, or no chromophore was added and cells were imaged after 1, 10, 30, 60, 120, and 225 min. Fluorescence was fit to a single exponential decay (F=A [exp^−kt]), where F is fluorescence that varies as a function of time, A is the fit initial fluorescence, k is the rate of fluorescence decay (protein degradation), and t is time in min.

Escherichia coli = assay: Fluorescence of FPs expressed in Escherichia coli; assay type: cell-based
HT1080 cells = assay: FP fluorescence in HT1080 cells in vitro; assay type: cell-based; conditions: for fold greater fluorescence than mCardinal: BVMe2
[3] = smURFP/TDsmURFP + 1 or 2 chromophore, Table 7

B1: smURFP: small ultra-red fluorescent protein, SEQ ID NO: 13, homodimer, covalently attaches biliverdin (protein)
chain: MKTSEQRVNIATLLTENKKKIVDKASQDLWRRHPDLIAPGGIAFSQRDRALCLRDYGWFLHLITFCLLAGDKGPIESIGLISIREMYNSLGVPVPAMMESIRCLKEASLSLLDEEDANETAPYFDYIIKAMS
modifications: homodimer; biliverdin chromophore; smRUFP Variant Polypeptide
Emission Maximum [1]: 670 nm
extinction coefficient (EC) [1]: 180,000 M^−1cm^−1
increase of BV QY after covalent attachment to smURFP [1]: ~1,400 fold
quantum yield (QY) [1]: 18%
Molecular Brightnes Relative to smURFP ([1]; Table 4): 100%
Emission Maximum ([1]; Table 5): 670 nm
Excitation Maximum ([1]; Table 5): 642 nm
Extinction Coefficient ([1]; Table 5): 180,000 ^ m^−1cm^−1/chromophore
Quantum Yield ([1]; Table 5): 18%
molecular brightness relative to eGFP ([1]; Table 5): 96%
Quantum Yield ([1]; b72, as fraction): 0.20
brightness relative to most red or far-red fluorescent proteins derived from coral ([1]; biophysical brightness): ~2 fold
Emission Maximum ([1]; evolved APCα FPs, Table 4): 670 nm
Excitation Maximum ([1]; evolved APCα FPs, Table 4): 642 nm
Extinction Coefficient ([1]; evolved APCα FPs, Table 4): 180,000 M^−1 cm^−1
Quantum Yield ([1]; evolved APCα FPs, Table 4): 18%
excitation (absorption) maximum ([1]; running text and figure legends): 642 nm
Emission Maximum [1, 3]: 670 nm
Excitation Maximum [1, 3]: 642 nm
Extinction Coefficient [1, 3]: 180,000 M^−1 cm^−1
Quantum Yield [1, 3]: 18%
in vitro photobleaching t50% ([2]; excitation intensity yielding 1,000 photons per s): 300 s
In vitro photostability t50% ([2]; time to bleach 50% from an initial emission rate of 1,000 photons per s): 300 s
fold increase in smURFP fluorescence (HEK293A cells; 5 μM BVMe2, 1 h): 85 fold
fold increase in smURFP fluorescence (HEK293A cells; 5 μM BVMe2, 3 h): 85 fold
fold increase in smURFP fluorescence (HEK293A cells; 5 μM BVMe2, 48 h): 125 fold
fold increase in smURFP fluorescence (HEK293A cells; 25 μM BV, 3 h): 13 fold
fold increase in smURFP fluorescence (HEK293A cells; 25 μM BV, 48 h): 27 fold
protein stability t50% (HEK293A cells; BV exposure 3 h): 30 h
protein stability t50% (HEK293A cells; BVMe2 exposure 3 h): 33 h
protein stability t50% (HEK293A cells; HEK293A cells, cycloheximide): 33 h
protein stability t50% (HEK293A cells; continuously exposed to BV, cycloheximide): 33 h
protein stability t50% (HEK293A cells; continuously exposed to BVMe2, cycloheximide): 35 h
protein stability t50% (HEK293A cells; without chromophore (apoprotein)): 17 h
fluorescence when expressed in E. coli (qualitative) (Escherichia coli): greater than that of infrared FPs IFP1.4 and iRFP713
fold brighter than R1+PCB (Escherichia coli; expressed in E. coli): ~650 fold
fluorescence relative to mCherry in HT1080 cells in vitro (HT1080 cells; 12.5 μM BV for 3 h): equivalent
fold greater fluorescence than mCardinal (HT1080 cells; HT1080, T2A construct): 4 fold

B2: smURFP + BVMe2: smURFP with a single biliverdin dimethyl ester chromophore (protein)
chain: B1 chain
modifications: left off: small tags and cut ends
notes: smURFP with a single biliverdin dimethyl ester chromophore
Emission Maximum ([1]; Table 5): 672 nm
Excitation Maximum ([1]; Table 5): 646 nm
Extinction Coefficient ([1]; Table 5): 65,000^ m^−1cm^−1/chromophore
Quantum Yield ([1]; Table 5): 12%
molecular brightness relative to eGFP ([1]; Table 5): 23%
Emission Maximum [1, 3]: 672 nm
Excitation Maximum [1, 3]: 646 nm
Extinction Coefficient [1, 3]: 65,000 M^−1 cm^−1
Quantum Yield [1, 3]: 12%
protein stability t50% (HEK293A cells; HEK293A cells, cycloheximide): 35 h
fold greater fluorescence than mCardinal (HT1080 cells; HT1080 stable lines expressing each FP separately): 2 fold
